Measurements: the Human Domainome abundance scans (Beltran et al. 2025)
± gives the uncertainty stated by the source.

B1: Lysine-specific demethylase 5C, residues 319 to 373; numbered along this chain, P41229 (parent)
chain: AQFIESYVCRMCSRGDEDDKLLLCDGCDDNYHIFCLLPPLPEIPKGVWRCPKCVM

Variants of: B1
Assay: abundance fitness (aPCA) (normalised: wild type 0, dead -1); higher = more abundant; growth selection in yeast, the domain comes from the species named
Conditions: Homo sapiens

G26L and Y7M are within error of each other in abundance fitness: -0.071 ± 0.1 for the first, 0.078 ± 0.2 for the second.

First: C35Y
Second: K45E
The abundance fitness of the first is lower: -0.786 ± 0.39 for the first, -0.138 ± 0.16 for the second.

Compared with I43G, C53E is lower in abundance fitness: -0.302 ± 0.12 for the first, -0.952 ± 0.4 for the second.

S6M and D19C are within error of each other in abundance fitness: 0.217 ± 0.13 for the first, 0.019 ± 0.11 for the second.

D16Q and V47Y are within error of each other in abundance fitness: -0.16 ± 0.14 for the first, -0.058 ± 0.19 for the second.

Compared with D25L, S6E is higher in abundance fitness: -0.381 ± 0.083 for the first, -0.08 ± 0.21 for the second.

D18L and P51D are within error of each other in abundance fitness: 0.052 ± 0.078 for the first, 0.009 ± 0.19 for the second.

K45S and E42Q are within error of each other in abundance fitness: -0.266 ± 0.12 for the first, 0.033 ± 0.27 for the second.

First: E5K
Second: E42P
The abundance fitness of the first is higher: 0.036 ± 0.19 for the first, -0.611 ± 0.17 for the second.

V47M and D16S are within error of each other in abundance fitness: -0.157 ± 0.18 for the first, 0.104 ± 0.093 for the second.

D16W and K20R are within error of each other in abundance fitness: -0.351 ± 0.18 for the first, -0.136 ± 0.15 for the second.

F3P and E42S are within error of each other in abundance fitness: -0.141 ± 0.2 for the first, -0.273 ± 0.094 for the second.

Going from L36P to S13N, the abundance fitness rises from -0.613 ± 0.2 to -0.212 ± 0.17.

Compared with G15S, K45A is lower in abundance fitness: 0.155 ± 0.066 for the first, -0.176 ± 0.15 for the second.

K52Q and D28L are within error of each other in abundance fitness: -0.065 ± 0.19 for the first, -0.294 ± 0.18 for the second.

I43A and I43C are within error of each other in abundance fitness: -0.281 ± 0.18 for the first, -0.314 ± 0.15 for the second.

I43R and V8H are within error of each other in abundance fitness: -0.022 ± 0.092 for the first, -0.11 ± 0.12 for the second.

P41Q and G46R are within error of each other in abundance fitness: -0.051 ± 0.21 for the first, -0.083 ± 0.15 for the second.

Y7E and D29L are within error of each other in abundance fitness: 0.193 ± 0.19 for the first, -0.101 ± 0.19 for the second.

V8R and I4A are within error of each other in abundance fitness: -0.075 ± 0.098 for the first, -0.188 ± 0.13 for the second.

First: V8K
Second: G46V
The abundance fitness of the first is higher: 0.254 ± 0.19 for the first, -0.105 ± 0.14 for the second.

D16E and D16N are within error of each other in abundance fitness: -0.072 ± 0.12 for the first, 0.131 ± 0.18 for the second.

F34S and Q2E are within error of each other in abundance fitness: -0.029 ± 0.11 for the first, -0.258 ± 0.28 for the second.

Compared with V47H, C53Y is lower in abundance fitness: -0.064 ± 0.22 for the first, -1.01 ± 0.3 for the second.

Compared with C50G, G46S is higher in abundance fitness: -1.01 ± 0.15 for the first, -0.204 ± 0.13 for the second.

Compared with C50V, P39M is higher in abundance fitness: -1.05 ± 0.19 for the first, -0.292 ± 0.18 for the second.

D25Q and K45L are within error of each other in abundance fitness: -0.218 ± 0.16 for the first, -0.175 ± 0.12 for the second.

First: H32W
Second: F34Q
The abundance fitness of the first is lower: -0.881 ± 0.18 for the first, -0.053 ± 0.21 for the second.

First: R49F
Second: S6T
The abundance fitness of the first is lower: -0.358 ± 0.14 for the first, 0.148 ± 0.14 for the second.

K52A and K52S are within error of each other in abundance fitness: 0.02 ± 0.12 for the first, -0.183 ± 0.12 for the second.

M11I and G46M are within error of each other in abundance fitness: -0.121 ± 0.21 for the first, -0.235 ± 0.18 for the second.

Compared with S13R, P51G is lower in abundance fitness: 0.007 ± 0.09 for the first, -0.494 ± 0.18 for the second.

First: E5Q
Second: L36Q
The abundance fitness of the first is higher: 0.02 ± 0.17 for the first, -0.555 ± 0.25 for the second.

V8C and S6A are within error of each other in abundance fitness: -0.258 ± 0.16 for the first, -0.068 ± 0.19 for the second.

Compared with K52Y, Q2T is higher in abundance fitness: -0.286 ± 0.24 for the first, 0.203 ± 0.2 for the second.

L36G and W48G are within error of each other in abundance fitness: -0.688 ± 0.17 for the first, -0.676 ± 0.14 for the second.

Compared with Y7V, C53K is lower in abundance fitness: -0.121 ± 0.12 for the first, -0.921 ± 0.48 for the second.

P38E and K20V are within error of each other in abundance fitness: -0.191 ± 0.19 for the first, -0.253 ± 0.14 for the second.

First: S13T
Second: E5W
The abundance fitness of the first is higher: -0.035 ± 0.12 for the first, -0.451 ± 0.24 for the second.

D28T and S6Y are within error of each other in abundance fitness: -0.494 ± 0.26 for the first, -0.1 ± 0.24 for the second.

N30I and P38H are within error of each other in abundance fitness: 0.219 ± 0.18 for the first, -0.12 ± 0.17 for the second.

L37W and G26N are within error of each other in abundance fitness: 0.182 ± 0.12 for the first, -0.105 ± 0.2 for the second.

First: P51L
Second: D28A
The abundance fitness of the first is lower: -0.671 ± 0.14 for the first, 0.092 ± 0.16 for the second.

D28N and R10A are within error of each other in abundance fitness: 0.046 ± 0.19 for the first, -0.148 ± 0.12 for the second.

M11T and K20A are within error of each other in abundance fitness: -0.211 ± 0.16 for the first, -0.065 ± 0.13 for the second.

P39F and I33K are within error of each other in abundance fitness: -0.667 ± 0.29 for the first, -0.423 ± 0.43 for the second.

Going from P41Y to C50K, the abundance fitness falls from -0.244 ± 0.22 to -1 ± 0.27.

E5C and Q2P are within error of each other in abundance fitness: 0.046 ± 0.17 for the first, -0.141 ± 0.18 for the second.

F3G and Q2N are within error of each other in abundance fitness: 0.022 ± 0.14 for the first, -0.019 ± 0.19 for the second.

Going from D18G to K20L, the abundance fitness falls from 0.183 ± 0.076 to -0.087 ± 0.099.

D29E and R10S are within error of each other in abundance fitness: 0.017 ± 0.32 for the first, -0.28 ± 0.24 for the second.

I43T and V54E are within error of each other in abundance fitness: -0.467 ± 0.17 for the first, -0.367 ± 0.22 for the second.

D28R and P41R are within error of each other in abundance fitness: 0.225 ± 0.13 for the first, 0.126 ± 0.083 for the second.

L23Y and K52W are within error of each other in abundance fitness: -0.141 ± 0.24 for the first, -0.364 ± 0.16 for the second.

S13C and M55V are within error of each other in abundance fitness: -0.171 ± 0.14 for the first, 0.015 ± 0.17 for the second.

L37T and D25A are within error of each other in abundance fitness: -0.03 ± 0.18 for the first, 0.158 ± 0.091 for the second.

D29M and M11C are within error of each other in abundance fitness: -0.237 ± 0.44 for the first, -0.085 ± 0.18 for the second.

Compared with E5I, C12I is lower in abundance fitness: -0.283 ± 0.17 for the first, -1.14 ± 0.32 for the second.

D19R and N30S are within error of each other in abundance fitness: -0.03 ± 0.081 for the first, -0.068 ± 0.089 for the second.

S6D and I4E are within error of each other in abundance fitness: -0.523 ± 0.37 for the first, -0.145 ± 0.19 for the second.

Going from C27I to P38R, the abundance fitness rises from -0.923 ± 0.41 to -0.116 ± 0.11.

L21C and P41N are within error of each other in abundance fitness: -0.304 ± 0.15 for the first, -0.157 ± 0.23 for the second.

C12N and S13Q are within error of each other in abundance fitness: -0.713 ± 0.37 for the first, -0.183 ± 0.16 for the second.

F34N and P38N are within error of each other in abundance fitness: 0.095 ± 0.23 for the first, 0.041 ± 0.2 for the second.

Compared with E17F, P38F is lower in abundance fitness: -0.062 ± 0.23 for the first, -0.564 ± 0.16 for the second.

I4R and P41H are within error of each other in abundance fitness: -0.3 ± 0.13 for the first, -0.286 ± 0.23 for the second.

E17K and E42I are within error of each other in abundance fitness: -0.122 ± 0.16 for the first, 0.009 ± 0.27 for the second.

S6P and I4T are within error of each other in abundance fitness: -0.097 ± 0.17 for the first, 0.201 ± 0.13 for the second.

First: Q2R
Second: C35Q
The abundance fitness of the first is higher: -0.271 ± 0.14 for the first, -1.03 ± 0.46 for the second.

First: E5D
Second: C27Y
The abundance fitness of the first is higher: 0.054 ± 0.19 for the first, -0.779 ± 0.21 for the second.

Compared with M11S, L36D is lower in abundance fitness: -0.138 ± 0.11 for the first, -0.898 ± 0.32 for the second.

E5S and L22M are within error of each other in abundance fitness: -0.125 ± 0.1 for the first, 0.05 ± 0.1 for the second.

D25W and V8Q are within error of each other in abundance fitness: -0.383 ± 0.18 for the first, -0.11 ± 0.15 for the second.

Going from G46A to G46C, the abundance fitness falls from -0.059 ± 0.2 to -0.578 ± 0.21.

P39G and L36T are within error of each other in abundance fitness: -0.217 ± 0.12 for the first, -0.16 ± 0.15 for the second.

V54S and V8L are within error of each other in abundance fitness: -0.261 ± 0.14 for the first, -0.243 ± 0.11 for the second.

M11G and L36F are within error of each other in abundance fitness: -0.072 ± 0.11 for the first, -0.26 ± 0.17 for the second.

D19W and V47T are within error of each other in abundance fitness: -0.146 ± 0.098 for the first, -0.101 ± 0.15 for the second.

L37E and L37S are within error of each other in abundance fitness: -0.073 ± 0.14 for the first, -0.012 ± 0.1 for the second.

I43W and P51A are within error of each other in abundance fitness: -0.202 ± 0.14 for the first, -0.258 ± 0.17 for the second.

S6N and G15T are within error of each other in abundance fitness: 0.183 ± 0.19 for the first, 0.029 ± 0.076 for the second.

Compared with E42W, P39A is higher in abundance fitness: -0.333 ± 0.14 for the first, -0.018 ± 0.11 for the second.

Compared with C53I, E5H is higher in abundance fitness: -0.941 ± 0.39 for the first, -0.263 ± 0.28 for the second.

Variant R14S has an abundance fitness of 0.188 ± 0.16.
